Assay results taken from the supplement of paper PMC9170038.

Tested on: MS2 coat protein
Experiment: apparent KD of MS2 coat protein; designed switch direction (-1 OFF switch, 1 ON switch): -1; higher = weaker reporter binding
Procedure, shortened: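 Apparent KD, taken as the median over clusters for each design, was obtained by curve-fitting normalised cluster fluorescence. Designed RNA switches had been transcribed on Illumina chips by stalled E. coli RNA polymerase and titrated with SNAP-549-labelled MS2 coat protein, doubling from 0.7 or 1.5 nM to 3 µM.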

[1] = Eterna round: R95, input ligand: microRNA oligo, concentration not stated
[2] = input ligand: microRNA oligo, concentration not stated
[3] = Eterna round: R95, input ligand: FMN 200 uM
[4] = Eterna round: R95, input ligand: none

Sequence	apparent KD of MS2 coat protein (input ligand: FMN 200 uM)	apparent KD of MS2 coat protein (input ligand: none)	apparent KD of MS2 coat protein [1]	other results
CUUGACUGAGGAUAUACGAGAUCGAAAGAUCGGCGAUCCCUACAUGAGGAUCACCCAUGUAGAAGGCAGUCAAG [Mod 14 - Jieux - Exclusion 2] (Eterna round: R97, puzzle: Exclusion 2)	0.0706 µM	0.017 µM	–	–
CCUCAGUAAGGAUAUCAGCUUAUGGAGUUGGUAAUGAGAGCUGAGAAGGUACAUGAGGAUCACCCAUGUUAGUU [JL Zatite mod 2] (puzzle: Exclusion 4)	–	–	0.0254 µM	–
UAUUUAGCAAGUAGAUCCUACAUGAGGAUCACCCAUGUGCUCUGAAAUAACGCAGAAUUACUGCGAGCUCGUCUUAU [Winner reversed engineered 28] (Eterna round: R97, puzzle: Sensor, turn-off variant 1)	1.08 µM	1.56 µM	–	–
UAAUUAAAUGUAGGAUAUCUGCACGUUUAGUGCAGAGAAGGACAUGAGGAUCACCCAUGUAGAUCAAAUUAAAUUAAUUUAAUU [ENG1/5-D2] (Eterna round: R96, puzzle: Exclusion NG 1)	0.0996 µM	0.0338 µM	–	apparent KD of MS2 coat protein [2]: 0.0257 µM
GGAGAGGGAGGAUAUGCGCCAACAAACAUGAGGAUCACCCAUGUGGUGCUCCAAGAAAGGGUAGAAGGCCCUCUCC [Default title] (puzzle: Exclusion 5)	–	–	0.275 µM	apparent KD of MS2 coat protein [3]: 0.619 µM; apparent KD of MS2 coat protein [4]: 0.295 µM
GUACGUAGAGGAUAUGGUUAUGAUGACAUGAGGAUCACCCAUGUUAGAGUGGGUAGAUUUCCAGAAGGCUGUGAAC [Eternabot (L1) Solution 98] (Eterna round: R97, puzzle: Exclusion 5)	1.06 µM	1.33 µM	–	–
AGGAUACAUGAGGAUCACCCAUGUGAGGAUAUACGAUAGCUCAGGAAGAGAUUAGUAUGUAGAAGGUGCGGGUG [Eternabot (L1) Solution 49] (Eterna round: R97, puzzle: Exclusion 1)	0.205 µM	0.198 µM	–	–
AGUGUCUUAGGAUAUACAUGAGGAUCACCCAUGUUAACAUUCCUUCGCGGUAUCGCAUGUAGAAGGAGGAUAUG [Eternabot (L1) Solution 68] (Eterna round: R97, puzzle: Exclusion 3)	0.0331 µM	0.0268 µM	–	–
CUUUUGUGAGGAUAUUAGUAGUAAAUAAAUAAAAUUACUACUGAGAAGGUACAUGAGGAUCACCCAUGUUCCUC [salish99_ex4_r3_044] (puzzle: Exclusion 4)	–	–	0.0158 µM	–
CAAGCCUGAACGGCCGCUCACAUGAGGAUCACCCAUGUCACCUGUGCUAGAGGACCACAUUAAUCGCUUCGUCUUGG [Eternabot (L1) Solution 7] (Eterna round: R97, puzzle: Sensor, turn-off variant 1)	0.0698 µM	0.0889 µM	–	–
UAUUUGCAAGCGAGAUCCCACAUGAGGAUCACCCAUGUGCUCGUCUUAUAAGGUACUGUGACGAUAGUCACGGUACC [Mat - Sensor, turn-off var - Eli Mod - D89] (Eterna round: R97, puzzle: Sensor, turn-off variant 1)	0.014 µM	0.0144 µM	–	–
GUCCGACAUGAGGAUCACCCAUGUGAGGAUAUGCGAUUAGCUGCUAGGUAGUUAGUAUGUAGAAGGUGCAUGAA [EX1 #75] (Eterna round: R97, puzzle: Exclusion 1)	0.0188 µM	0.0175 µM	–	–
GGUAUGCAGGCUUUAGGUAACAUGAGGAUCACCCAUGUAGCAGGUCGUAACCAGGUCAUUGGUUCUCAACGCUCGUU [Eternabot (L2) Solution 46] (Eterna round: R97, puzzle: Sensor, turn-off variant 1)	0.0314 µM	0.0344 µM	–	–
ACUUAUGCGGAGGAUAUUUAACGUAGCGAAAGUAAAGAAGGCCGAACAUGAGGAUCACCCAUGUGGAGGUGUAA [Eternabot (L1) Solution 24] (Eterna round: R97, puzzle: Exclusion 6)	0.0925 µM	0.023 µM	–	–
GUGAGUGGUCAGGAUAUGCUGUACAAAAGUACAGCAGAAGGGAUUACAUGAGGAUCACCCAUGUUUACUUCAUG [Omei Ex6 B4] (Eterna round: R97, puzzle: Exclusion 6)	0.125 µM	0.0902 µM	–	–
GAAAAGGUAGGAUAUACGAAAAAAAAGGGUAGAAGAAAAACACAUGAGGAUCACCCAUGUAGAAGGACCAAAAG [salish99_ex2_r3_022] (puzzle: Exclusion 2)	–	–	0.0186 µM	apparent KD of MS2 coat protein [3]: 0.107 µM; apparent KD of MS2 coat protein [4]: 0.0235 µM
CGGGUCUGAGGAUAUCCACCCUCAUACAUGAGGAUCACCCAUGUUCACCCUUGGGUUCCCGGAGAAGGCAGUUUUC [Megrez-3.6] (Eterna round: R97, puzzle: Exclusion 5)	0.275 µM	0.208 µM	–	–
AAAUCCGCUGAGGAUAUGAUGACUGAGAGGUCAUCAGAAGGCGGUACAUGAGGAUCACCCAUGUCUAUGGGCAA [Ex-6 Malc#29] (puzzle: Exclusion 6)	–	–	0.317 µM	apparent KD of MS2 coat protein [3]: 0.313 µM; apparent KD of MS2 coat protein [4]: 0.636 µM
AAACGGCGGAUCGUGGCUUUUUGCUCGUCUUGUGCUUCAACAUGAGGAUCACCCAUGUAGUGGUGAUCCGUUGUAAA [Grok-var2-17 mod JAL] (puzzle: Sensor v3, turn-off variant 2)	–	–	0.0267 µM	apparent KD of MS2 coat protein [3]: 0.0258 µM; apparent KD of MS2 coat protein [4]: 0.0421 µM
UCUGCAACGCAAGGAUAUCUUAGAGUUGAAGAAAGAGAAGGUGCAGGUGAUAACAUGCCCGUAACAUGAGGAUCACCCAUGUAA [Eternabot solution 48] (Eterna round: R96, puzzle: Exclusion NG 1)	0.0961 µM	0.0793 µM	–	apparent KD of MS2 coat protein [2]: 0.0683 µM
ACAUUACAUGAGGAUCACCCAUGUGAGGAUAUGGUGCGGUAGUGUCCUGUCGCGUACUCCAGAAGGCGCGGGUG [1st #46] (Eterna round: R97, puzzle: Exclusion 1)	0.174 µM	0.194 µM	–	–
UUUUUCUCAGGAUAUACAUGAGGAUCACCCAUGUAUAUUGAUGAUAAUACAUGGGAAUGUAGAAGGGAGCUCAU [Omei Ex3 Pseudoloop 16] (Eterna round: R97, puzzle: Exclusion 3)	0.0879 µM	0.0957 µM	–	–
AUGGACGCAGGAUAUACAUGAGGAUCACCCAUGUUAGGGUUGUGAGUAGGAAGGGAAGGUAGAAGGGCGAGAGU [JR_Exclu3_Sub099] (puzzle: Exclusion 3)	–	–	0.0869 µM	–
CAGUACUGAGGAUAUACAUGAGGAUCACCCAUGUGGAGAGGAAAAGGAAGAAAAGAAGGUAGAAGGCGGUGCUG [JR_Ex3_Sub042] (Eterna round: R97, puzzle: Exclusion 3)	0.196 µM	0.0408 µM	–	–
UUUAAGUCAGGAUAUCGUUAAUUUAAUAAAUAAAUUUAAUUCGAGAAGGGACAUGAGGAUCACCCAUGUAAUUU [Ex4 #1] (Eterna round: R97, puzzle: Exclusion 4)	0.0455 µM	0.0348 µM	–	–
CCGGAAAUAGAGGAUAUCGUAUCGGAUACGAUACGAGAAGGCUAUACAUGAGGAUCACCCAUGUGUCCUACCGG [Fiskers Ex 6 - 56] (puzzle: Exclusion 6)	–	–	0.0161 µM	–
